According to the supplement of paper PMC10724198:
± gives the standard deviation of the averaged measurements.

What follows are sequences tested on Saccharomyces cerevisiae (assay: protein stability index of tFT-peptide fusion (C-terminal peptide) (PSI (0-1 scale)); higher = more stable (slower turnover)). Details: genetic background: wild type; temperature: 30 C.
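Further: PSI is a weighted mean of sequencing reads over stability bins, variants kept only with over 10 reads, mCherry proximal and sfGFP distal, peptide attached via GGGS linker.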

Sequence | protein stability index
VVLGGFAVGLGF | 0.708 ± 0.021
VVLPLCRVPSHW | 0.688 ± 0.05
VVLRRTLGAFLF | 0.661 ± 0.059
VVREAKGHGGCR | 0.667 ± 0.014
VVREARTLNGDM | 0.671 ± 0.099
VVRLTALTNATV | 0.671 ± 0.086
VVRLTNGLFSIL | 0.662 ± 0.0094
VVSITYCGQGGG | 0.694 ± 0.045
VVSLGLGPSLRV | 0.709 ± 0.1
VVSQSPTLGSNY | 0.655 ± 0.022
VVTSVLCGRVHL | 0.682 ± 0.0069
VVVAWGGGAVVG | 0.684 ± 0.018
VVVGSITRLGLW | 0.6908 ± 0.00074
VVVGVGGCVDMG | 0.676 ± 0.014
VVVGWWALGRFL | 0.629 ± 0.018
VVVRAGAIFAIP | 0.62 ± 0.045
VVVSRARSSRSS | 0.6332 ± 0.0021
VVWEGSEFVSLA | 0.671 ± 0.039
VVWSGRWKGLRV | 0.621 ± 0.12
VWAWGACPRGEG | 0.6429 ± 0.0016
VWCAFNLLFARQ | 0.574 ± 0.032
VWGIIQTDRMGR | 0.744 ± 0.017
VWGRGWVVGWFL | 0.612 ± 0.066

Sequence | protein stability index
VWGRLGGGVGRA | 0.719 ± 0.069
VWGRQGGGVGRA | 0.715 ± 0.088
VWGVFGGCWCGV | 0.693 ± 0.021
VWSWGDGGGAVV | 0.734 ± 0.029
VWTATLRPPGHP | 0.655 ± 0.068
VWVGGGRRDPKY | 0.735 ± 0.075
VWVGGVSVGFFG | 0.716 ± 0.061
VWVSRPWGRGGL | 0.681 ± 0.038
VYACGVDFNVRG | 0.678 ± 0.094
VYRLYPLSPLLY | 0.679 ± 0.12
VYVLTKSSMGRN | 0.692 ± 0.048
WADLIPDSFGDM | 0.741 ± 0.059
WADYLWFGLNGG | 0.712 ± 0.028
WAGGGGGRVCGW | 0.799 ± 0.11
WAGGSGRRIGCR | 0.712 ± 0.0089
WARSLPHPISRR | 0.803 ± 0.064
WASKVGSYICAE | 0.671 ± 0.02
WCFSLGYFFFCR | 0.585 ± 0.05
WCFVGLVNTCRI | 0.617 ± 0.025
WCFVPLSFRLDS | 0.71 ± 0.025
WCGGGGVACLLL | 0.693 ± 0.0086
WCGTLVDRGCSL | 0.554 ± 0.026
WCQREPSSKYKI | 0.578 ± 0.054

Sequence | protein stability index
WDGWPTGSGGTG | 0.72654 ± 0.00043
WECGRVSVIRRC | 0.594 ± 0.019
WESWGPDWLCVG | 0.769 ± 0.035
WFGSGGRGWREF | 0.713 ± 0.048
WFKSIREGKGSR | 0.68 ± 0.044
WFNAGAGDLGSV | 0.709 ± 0.033
WFPPLPPPPPPS | 0.734 ± 0.028
WGCVGVGGLFSG | 0.665 ± 0.017
WGECGVWVGLWG | 0.709 ± 0.051
WGGGVGWSGACL | 0.734 ± 0.02
WGGRSGTWGLVG | 0.803 ± 0.1
WGGTGALGTVRW | 0.759 ± 0.028
WGGVGLRGGWDG | 0.713 ± 0.047
WGGVGRLAGLLG | 0.703 ± 0.021
WGGYLISLNLYN | 0.561 ± 0.025
WGHFVGVWGRAG | 0.664 ± 0.075
WGLGVFALKTLL | 0.623 ± 0.034
WGRAGPSSPCSC | 0.709 ± 0.088
WGRGWWEMVGRT | 0.686 ± 0.0074
WGRIVRDFHCGG | 0.614 ± 0.0083
WGRQSERILRST | 0.606 ± 0.046
WGRRWRCAGRGG | 0.656 ± 0.056
WGSSCQAEDVTN | 0.737 ± 0.016

Sequence | protein stability index
WGTGGGLGVGHV | 0.726 ± 0.093
WGVCGVFLCLGV | 0.572 ± 0.11
WGVGVGGRMRPH | 0.707 ± 0.044
WGWSLARRFLSV | 0.555 ± 0.037
WGYRLRGGGGQG | 0.701 ± 0.064
WHFTPPPPPTSP | 0.715 ± 0.011
WHGLLEWLAWRT | 0.736 ± 0.078
WHRTGPFCGFPC | 0.766 ± 0.17
WIIRATCAGVSL | 0.528 ± 0.032
WKETGRGTISHK | 0.699 ± 0.013
WKEVGGSRILLV | 0.6033 ± 0.0031
WKKYTKTKKKKN | 0.689 ± 0.021
WLDDCVRVGMRI | 0.6722 ± 0.0033
WLEVHVRERPGL | 0.661 ± 0.035
WLFFVCEDAGGC | 0.68 ± 0.021
WLPTTPLPPLSP | 0.703 ± 0.018
WLVRRVSSGQFG | 0.653 ± 0.062
WNCRILGLVMRG | 0.695 ± 0.029
WNFVCGVFFATG | 0.543 ± 0.056
WNPHFHALSWRL | 0.684 ± 0.019
WPAPLPPTRPLP | 0.722 ± 0.038
WPCGGLRFSLPY | 0.674 ± 0.029
WPHGHVNTHRIG | 0.737 ± 0.038

Sequence | protein stability index
WPKNSTNHSWKW | 0.744 ± 0.035
WPVPPASYPALS | 0.728 ± 0.14
WQCRAPRFEKGV | 0.696 ± 0.08
WQGLGGARGCML | 0.691 ± 0.066
WRGEMGGSGGQA | 0.713 ± 0.032
WRGLGWSDAGGG | 0.654 ± 0.043
WRGRCGPVLGFC | 0.659 ± 0.027
WRLVREGRMRGG | 0.742 ± 0.031
WRRGIRAKIDSI | 0.678 ± 0.015
WRRPRVLWVSSR | 0.637 ± 0.0079
WRVFPVVSCSSS | 0.6312 ± 0.0053
WSGKRAKGISEK | 0.682 ± 0.04
WSGVFSCTLSIT | 0.567 ± 0.038
WSPFSLISLSPP | 0.725 ± 0.099
WSSLSCACVVPF | 0.726 ± 0.065
WSSTTISVQRGL | 0.7 ± 0.089
WSSVSGEFRSLW | 0.707 ± 0.035
WSVHGLGSVSIY | 0.707 ± 0.014
WSYGHVPYDYPF | 0.73 ± 0.022
WTLSDTRHVLPV | 0.6683 ± 0.00084
WTSGCLEIFRRE | 0.702 ± 0.033
WVESGGGCVGRI | 0.706 ± 0.039
WVGSGRVWVKLG | 0.708 ± 0.0092

Sequence | protein stability index
WVGVGMRTNGLG | 0.679 ± 0.072
WVLGGSWLRCRK | 0.726 ± 0.014
WVNRFVFFSPST | 0.615 ± 0.11
WVPGAAGFTGSL | 0.74 ± 0.049
WVVRVMYTSSGK | 0.556 ± 0.035
WWASFVGSFVGD | 0.878 ± 0.15
WWEFSCGFVVGG | 0.671 ± 0.098
WWGSGGREPGGS | 0.739 ± 0.05
WWSASGGQDVLK | 0.67 ± 0.061
WYHALTLASWLS | 0.577 ± 0.021
YAGARGPMNRGS | 0.701 ± 0.015
YARLAWDFRRSP | 0.737 ± 0.019
YATAICRSGCLK | 0.699 ± 0.037
YCAMVSVGVVGG | 0.534 ± 0.0076
YCGGRWGGWEIG | 0.684 ± 0.0037
YCHLNLHGCKGC | 0.636 ± 0.023
YCTAGVCVKAGR | 0.765 ± 0.027
YCVCACCASLLA | 0.538 ± 0.025
YDELEKADKQEE | 0.6723 ± 0.0061
YEEGRGEWIKKI | 0.632 ± 0.051
YESISGLGHLSG | 0.6962 ± 0.005
YEYPRVTFSPQT | 0.7878 ± 0.005
YFESKWKYAGVR | 0.699 ± 0.0074

Sequence | protein stability index
YFFDYGVSRVLS | 0.584 ± 0.015
YFSSGGITVSLC | 0.664 ± 0.066
YFVSCACSSYFV | 0.601 ± 0.02
YGAVRFTLIPLQ | 0.639 ± 0.024
YGCSLFCPDCSI | 0.794 ± 0.15
YGFLRSWCICDT | 0.729 ± 0.098
YGGDMHGNNFSG | 0.701 ± 0.011
YGGRGFKGYYGG | 0.776 ± 0.02
YGIGNVNTGRGP | 0.703 ± 0.011
YGNTQFLTQTWY | 0.705 ± 0.021
YGSYVVNSLYLS | 0.616 ± 0.0097
YGYMTNNCLLSI | 0.649 ± 0.041
YIHGFRLFGCVD | 0.668 ± 0.031
YKGKFTILESLK | 0.665 ± 0.027
YKVKADRVRHRR | 0.692 ± 0.013
YLALSAPKERTH | 0.703 ± 0.033
YLFSTGSTLHSH | 0.818 ± 0.088
YLPKLSTYRLLR | 0.654 ± 0.032
YLPRPPPTTALL | 0.74 ± 0.087
YLQESLVEMWIV | 0.65 ± 0.056
YLSFYRLLDSST | 0.664 ± 0.007
YLSPSTPLPVVL | 0.64 ± 0.1
